# Patent publication US20090291081A1 (AbbVie / Abbott, published 2009)
# Several values for one entry are separate records, joined by “and”; a condition that tells them apart may be missing. Equal entries are not always repeated. Where two headings read alike, the source gives them in different places.
# T1: human IL-1α (human, UniProt P01583 113-271)
# T1 construct: also called hIL-1α; rhIL-1 alpha
# T1 sequence (looked up): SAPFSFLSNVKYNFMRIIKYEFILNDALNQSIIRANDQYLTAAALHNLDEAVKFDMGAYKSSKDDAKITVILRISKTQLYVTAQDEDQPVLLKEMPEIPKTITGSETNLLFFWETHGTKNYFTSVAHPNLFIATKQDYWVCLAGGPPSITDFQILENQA
# Columns and labels:
# human IL-1α [1] = target: T1, human IL-1α; assay: method not given
# human IL-1α [2] = target: T1, human IL-1α; assay: BIAcore, IL-1α coated chip, dAb flowed over
# human IL-1α [3] = target: T1, human IL-1α; assay: BIAcore, purified dAb
# human IL-1α [4] = target: T1, human IL-1α; assay: cell-based or functional assay
# human IL-1α [5] = target: T1, human IL-1α; assay: IL-1 Receptor Binding Assay
# human IL-1α [6] = target: T1, human IL-1α; assay: cell-based or functional assay; remark: listed apart in the source
# human IL-1α [7] = target: T1, human IL-1α; assay: BIAcore, purified dAb; remark: listed apart in the source
# human IL-1α [8] = target: T1, human IL-1α; assay: cell-based or functional assay; remark: listed apart in the source
# human IL-1α [9] = target: T1, human IL-1α; assay: cell-based or functional assay; remark: listed apart in the source
# human IL-1α [10] = target: T1, human IL-1α; assay: BIAcore kinetic analysis of the dAb
# human IL-1α [11] = target: T1, human IL-1α; assay: Biacore, IgG captured by goat anti-human IgG Fc; rhIL-1 alpha 100 nM then rhIL-1 beta 200 nM
# Description: (§1) The antibody (1-5 ug/ml) was first captured on a goat anti human IgG FC surface.
# human IL-1β [12] = target: T2, human IL-1β (human, UniProt P01584 117-269); assay: as above
# T2 construct: also called hIL-1β; rhIL-1 beta
# Description: as §1
# human IL-1β [13] = target: T2, human IL-1β; assay: Biacore, IgG captured by goat anti-human IgG Fc; rhIL-1 beta followed by rhIL-1 alpha
# Description: as §1
# human IL-1α [14] = target: T1, human IL-1α; assay: cell-based or functional assay; remark: listed apart in the source
# human IL-1β [15] = target: T2, human IL-1β; assay: cell-based or functional assay
# human IL-1α [16] = target: T1, human IL-1α; assay: Biacore, IgG captured by goat anti-human IgG Fc
# human IL-1β [17] = target: T2, human IL-1β; assay: Biacore, IgG captured by goat anti-human IgG Fc
# human IL-1α [18] = target: T1, human IL-1α; assay: cell-based or functional assay; remark: listed apart in the source
# human IL-1β [19] = target: T2, human IL-1β; assay: cell-based or functional assay; remark: listed apart in the source
# human IL-1α [20] = target: T1, human IL-1α; assay: BIAcore kinetic analysis of the dAb; remark: listed apart in the source
binder,measurement,setting,value
"ABT1-95-3 (other, dAb, Vκ, to IL-1α) VL: DIQMTQSPSSLSASVGDRVTITCRASQPIHGNLRWYQQKPGKAPKLLIYSSSYLQSGVPSRFSGSGSGTDFTLTISSLQPEDFATYHCQQGYRWPVTFGQGTKVEIKR",Kd,human IL-1α [1],5 to 10 nM
same,Kd,human IL-1α [2],7 to 12 nM
same,Kd,human IL-1α [3],5.4 nM
same,MRC5 ND50,human IL-1α [4],50 nM
"ABT1-95-8 (other, dAb, Vκ, to IL-1α) VL: DIQMTQSPSSLSASVGDRVTITCRASQPIQGNLRWYQQKPGKAPKLLIYSSSYLERGVPSRFSGSGSGTDFTLTISSLQPEDFATYHCQQGYRWPVTFGQGTKVEIKR",Kd,human IL-1α [1],0.9 nM
same,IC50,human IL-1α [5],1 nM
same,MRC5 ND50,human IL-1α [4],0.9 nM
"ABT1-95-13 (other, dAb, Vκ, to IL-1α) VL: DIQMTQSPSSLSASVGDRVTITCRASQPIVRNLRWYQQKPGKAPKLLIYSSSYLERGVPSRFSGSGSGTDFTLTISSLQPEDFATYHCQQGYRWPVTFGQGTKVEIKR",ND50,human IL-1α [6],120 pM
same,Kd,human IL-1α [7],0.95 nM
same,MRC5 ND50,human IL-1α [4],0.11 nM
"ABT1-95-14 (other, dAb, Vκ, to IL-1α) VL: DIQMTQSPSSLSASVGDRVTITCRASQPIVKNLRWYQQKPGKAPKLLIYSSSYLERGVPSRFSGSGSGTDFTLTISSLQPEDFATYHCQQGYRWPVTFGQGTKVEIKR",ND50,human IL-1α [6],250 pM
same,Kd,human IL-1α [7],1.2 nM
same,MRC5 ND50,human IL-1α [4],0.25 nM
"ABT1-95-15 (other, dAb, Vκ, to IL-1α) VL: DIQMTQSPSSLSASVGDRVTITCRASQPIVRNLRWYQQKPGKAPKLLIYSSSYLEPGVPSRFSGSGSGTDFTLTISSLQPEDFATYHCQQGYRWPVTFGQGTKVEIKR",ND50,human IL-1α [6],45 pM
same,Kd,human IL-1α [7],0.67 nM
"ABT1-141 (other, dAb, Vκ, to IL-1α; also called dAb ABT1-141) VL: DIQMTQSPSSLSASVGDRVTITCRASQWIQKQLAWYQQKPGKAPKLLIYSSSYLQSGVPSRFSGSGSGTDFTLTISSLQPEDFATYYCQQHLRVPFTFGQGTKVEIKR",MRC5 ND10,human IL-1α [8],10 nM
same,MRC5 ND50,human IL-1α [8],70 nM
same,MRC5 ND50,human IL-1α [9],70 nM
same,Kd,human IL-1α [10],300 nM
same,koff,human IL-1α [10],0.0039 s⁻¹
same,kon,human IL-1α [10],13000 M⁻¹ s⁻¹
"ABT2-108-620x/ABT1-95-A3 hu IgG1/K mut (234; 235) (bispecific antibody, V domains shown, hu IgG1/K mut (234)) VH: EVQLLESGGGLVQPGGSLRLSCAASGFTFAEESWMWVRQAPGKGLEWVSRIGQDGKNTYYREDVKGRFTISRDNSKNTLYLQMNSLRAEDTAVYYCAKYTGRIMGHHLFDYWGQGTLVTVSS VL: DIQMTQSPSSLSASVGDRVTITCRASKPGVRNMRWYQQKPGKAPKLLIYSVSYLEPGVPSRFSGSGSGTDFTLTISSLQPEDFATYHCLQGYRWPPTFGQGTKVEIKR",stoichiometry,human IL-1α [11],2
same,stoichiometry,human IL-1β [12],0.9
same,stoichiometry,human IL-1β [13],0.98
same,IL-1α IC50,human IL-1α [14],2 pM
same,IL-1β IC50,human IL-1β [15],7.3 pM
same,Kd,human IL-1α [16],0.0887 nM and 0.0835 nM
same,koff,human IL-1α [16],4.25e-05 s⁻¹ and 4.11e-05 s⁻¹
same,kon,human IL-1α [16],479000 M⁻¹ s⁻¹ and 492000 M⁻¹ s⁻¹
same,Kd,human IL-1β [17],0.446 nM and 0.361 nM
same,koff,human IL-1β [17],0.000138 s⁻¹ and 0.000102 s⁻¹
same,kon,human IL-1β [17],315000 M⁻¹ s⁻¹ and 283000 M⁻¹ s⁻¹
same,Kd,human IL-1β [17]; mean,0.404 nM
same,koff,human IL-1β [17]; mean,0.00012 s⁻¹
same,kon,human IL-1β [17]; mean,299000 M⁻¹ s⁻¹
same,IC50 (MRC-5 neutralization assay),human IL-1α [18],< 1 pM
same,MRC-5 IL-1a inhibition assay EC50,human IL-1α [18],4.46 pM
same,IC50 (MRC-5 neutralization assay),human IL-1β [19],5.58 pM
"ABT1-96 (other, dAb, VH, to IL-1α; also called dAb ABT1-96) VH: EVQLLESGGGLVQPGGSLRLSCAASGFTFNQYNMFWVRQAPGKGLEWVSVISGSGRFTYYADSVKGRFTISRDNSKNTLYLQMNSLRAEDTAVYYCAKGWWRRDPPFDYWGQGTLVTVSS",Kd,human IL-1α [20],1.1 nM
same,koff,human IL-1α [20],0.00039 s⁻¹
same,kon,human IL-1α [20],370000 M⁻¹ s⁻¹
same,MRC5 ND10,human IL-1α [8],3 nM
same,MRC5 ND50,human IL-1α [8],11 nM
